Paper PMC6983471

How the values were obtained:
[1] = target: VEK50[RH2/AA] (VEK50^ΔRH2), VEK50 with R30H31 replaced by Ala-Ala (Streptococcus pyogenes (isolate AP53)); assay: ITC
[2] = target: VEK50[RH1/AA] (VEK50^ΔRH1), VEK50 with R17H18 replaced by Ala-Ala (Streptococcus pyogenes (isolate AP53)); assay: ITC
[3] = target: VEK50[RH2/AA] (VEK50^ΔRH2), VEK50 with R30H31 replaced by Ala-Ala (Streptococcus pyogenes (isolate AP53)); assay: AUC
[4] = target: VEK50[RH1/AA] (VEK50^ΔRH1), VEK50 with R17H18 replaced by Ala-Ala (Streptococcus pyogenes (isolate AP53)); assay: AUC
[5] = target: VEK50[RH2/AA] (VEK50^ΔRH2), VEK50 with R30H31 replaced by Ala-Ala (Streptococcus pyogenes (isolate AP53)); assay: NMR titration
[6] = target: VEK50[RH1/AA] (VEK50^ΔRH1), VEK50 with R17H18 replaced by Ala-Ala (Streptococcus pyogenes (isolate AP53)); assay: NMR titration

Question: Which Kd [1] does the source give for “K2hPg, kringle 2 domain of human plasminogen, triple variant C4G/E56D/L72Y (domain or fragment)” here?
Answer: The Kd was 42 nM.

Question: And the stoichiometry N (K2hPg per peptide) [1]?
Answer: The stoichiometry N (K2hPg per peptide) was 1.

Question: And the Kd [2]?
Answer: The Kd was 9 nM.

Question: What about the stoichiometry N (K2hPg per peptide) [2] of the same substance?
Answer: Its stoichiometry N (K2hPg per peptide) is 1.

Question: What about the stoichiometry N (K2hPg per peptide) [3] of the same substance?
Answer: The stoichiometry N (K2hPg per peptide) was 1.

Question: What about the stoichiometry N (K2hPg per peptide) [4] of the same substance?
Answer: The stoichiometry N (K2hPg per peptide) was 1.

Question: And the stoichiometry N (K2hPg per peptide) [5]?
Answer: Its stoichiometry N (K2hPg per peptide) is 1.

Question: What about the stoichiometry N (K2hPg per peptide) [6] of the same substance?
Answer: Its stoichiometry N (K2hPg per peptide) is 1.
